# T1: actin-binding domain 1 of human plastin 2 (human, UniProt P13796 120-375)
# T1 sequence (looked up): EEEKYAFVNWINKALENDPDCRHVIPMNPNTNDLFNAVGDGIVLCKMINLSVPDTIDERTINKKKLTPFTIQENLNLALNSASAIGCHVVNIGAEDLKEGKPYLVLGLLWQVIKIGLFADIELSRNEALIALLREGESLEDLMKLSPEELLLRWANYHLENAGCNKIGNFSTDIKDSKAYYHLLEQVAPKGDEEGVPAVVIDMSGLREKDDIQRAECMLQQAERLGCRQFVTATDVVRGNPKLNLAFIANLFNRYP
# Tests used:
# [1] = molecular target: F-actin (skeletal muscle actin, polymerised) ( (rabbit or chicken skeletal …, UniProt P68135 1-377)); assay: fluorescence polarisation
# [2] = molecular target: T1, actin-binding domain 1 of human plastin …; assay: fluorescence polarisation
Kd [1],Kd [2],Binder
~4 nM,,"actin-binding domain 2 of human plastin 2, unlabeled (domain or fragment) TREERTFRNWMNSLGVNPRVNHLYSDLSDALVIFQLYEKIKVPVDWNRVNKPPYPKLGGNMKKLENCNYAVELGKNQAKFSLVGIGGQDLNEGNRTLTLALIWQLMRRYTLNILEEIGGGQKVNDDIIVNWVNETLREAKKSSSISSFKDPKISTSLPVLDLIDAIQPGSINYDLLKTENLNDDEKLNNAKYAISMARKIGARVYALPEDLVEVNPKMVMTVFACLMGKGMKRV"
,11.4 nM,"fluorescein-maleimide-labeled actin-binding domain 2 of human plastin 2 (domain or fragment, UniProt P13796 394-627, looked up, labeled with fluorescein-5-maleimide (FM); labeled residue not stated) TREERTFRNWMNSLGVNPRVNHLYSDLSDALVIFQLYEKIKVPVDWNRVNKPPYPKLGGNMKKLENCNYAVELGKNQAKFSLVGIGGQDLNEGNRTLTLALIWQLMRRYTLNILEEIGGGQKVNDDIIVNWVNETLREAKKSSSISSFKDPKISTSLPVLDLIDAIQPGSINYDLLKTENLNDDEKLNNAKYAISMARKIGARVYALPEDLVEVNPKMVMTVFACLMGKGMKRV"
